In PMC3711453:
Like-named read-outs stand apart in the source and are kept apart here.

T1: His6-MTSF1 (lacking first 146 aa) (Arabidopsis thaliana? (Arabidopsis, …, UniProt Q9M9X9 147-987))
T1 sequence: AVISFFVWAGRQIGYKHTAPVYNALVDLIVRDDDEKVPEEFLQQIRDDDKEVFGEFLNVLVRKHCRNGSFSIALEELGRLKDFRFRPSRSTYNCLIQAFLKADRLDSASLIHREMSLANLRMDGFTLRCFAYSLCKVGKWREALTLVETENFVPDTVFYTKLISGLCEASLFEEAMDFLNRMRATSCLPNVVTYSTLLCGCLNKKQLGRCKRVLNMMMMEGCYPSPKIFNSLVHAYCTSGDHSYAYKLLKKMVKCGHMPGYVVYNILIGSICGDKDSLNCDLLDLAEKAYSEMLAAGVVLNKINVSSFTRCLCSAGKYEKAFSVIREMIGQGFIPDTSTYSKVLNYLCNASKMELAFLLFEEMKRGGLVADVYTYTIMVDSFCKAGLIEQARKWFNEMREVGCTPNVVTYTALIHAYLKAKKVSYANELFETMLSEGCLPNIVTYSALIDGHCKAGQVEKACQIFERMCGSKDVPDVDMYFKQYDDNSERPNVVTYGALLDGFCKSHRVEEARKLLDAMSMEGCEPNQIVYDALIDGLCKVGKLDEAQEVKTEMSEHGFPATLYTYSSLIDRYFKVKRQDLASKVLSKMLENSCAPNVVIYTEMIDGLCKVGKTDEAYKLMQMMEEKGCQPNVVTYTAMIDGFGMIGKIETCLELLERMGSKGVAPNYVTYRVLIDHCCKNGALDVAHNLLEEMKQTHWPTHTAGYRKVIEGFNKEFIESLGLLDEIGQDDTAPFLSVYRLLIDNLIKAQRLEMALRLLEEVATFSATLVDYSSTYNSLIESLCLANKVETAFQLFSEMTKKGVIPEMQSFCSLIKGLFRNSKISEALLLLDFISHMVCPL


Legend:
[1] = target: T1, His6-MTSF1 (lacking first 146 aa); assay: EMSA
[2] = target: T1, His6-MTSF1 (lacking first 146 aa); assay: EMSA; remark: listed apart in the source

| Binder | binding result [1] | binding result [2] |
| --- | --- | --- |
| GAGGAAUCAGCAAAGAAAAGAAAAACGGGU (ssRNA) [3'ND4-1 (entire nad4 3' UTR, 30 nt)] | binds | – |
| AACAUGGCAAAUUUCAUUGA (ssRNA) [3'ND4-2 (last 20 nt of nad4 coding sequence)] | no binding | – |
| CAACAUCUUAAUGUGUAUUUGAGGAUAUUU (ssRNA) [3'ND4-4 (30 nt downstream of nad4 mRNA 3' end)] | no binding | – |
| CAAAGAAAAGAAAAACGGGU (ssRNA) [3'ND4-3 (last 20 nt of nad4 3' UTR)] | – | binds |
